Tested on: Escherichia coli TOP10
Test: shrunken log2 fold change of peptide-encoding DNA abundance (4.5 h post-induction vs induction); higher = less antimicrobial activity (less host growth inhibition)
Settings: time post-induction: 4.5 h; library: site-saturation at positions 5, 18, 19, 20
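Further: peptides expressed intracellularly from a pBAD plasmid library in pooled LB shake-flask culture, induced with 0.3% L-arabinose, DNA abundance read by NGS, three biological replicates, DESeq2 with apeglm shrinkage.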

Row | Sequence | shrunken log2 fold change
1 | RRIRDRPPRLPRPRPRPKPIPRP | 0.106
2 | RRIRDRPPRLPRPRPRPKPPPRP | 0.471
3 | RRIRDRPPRLPRPRPRPKQMPRP | 0.113
4 | RRIRDRPPRLPRPRPRPKSIPRP | 0.114
5 | RRIRDRPPRLPRPRPRPKTIPRP | -0.00641
6 | RRIRDRPPRLPRPRPRPKTTPRP | 0.0604
7 | RRIRDRPPRLPRPRPRPKWWPRP | 0.00489
8 | RRIRDRPPRLPRPRPRPKYAPRP | 0.0137
9 | RRIRDRPPRLPRPRPRPKYSPRP | -0.0792
10 | RRIRDRPPRLPRPRPRPLCRPRP | -0.0528
11 | RRIRDRPPRLPRPRPRPLCSPRP | 0.513
12 | RRIRDRPPRLPRPRPRPLDIPRP | 0.0227
13 | RRIRDRPPRLPRPRPRPLFCPRP | 0.208
14 | RRIRDRPPRLPRPRPRPLHQPRP | 0.302
15 | RRIRDRPPRLPRPRPRPLIQPRP | 0.365
16 | RRIRDRPPRLPRPRPRPLKGPRP | -0.0274
17 | RRIRDRPPRLPRPRPRPLKHPRP | -0.927
18 | RRIRDRPPRLPRPRPRPLKLPRP | 0.0229
19 | RRIRDRPPRLPRPRPRPLNMPRP | 0.111
20 | RRIRDRPPRLPRPRPRPLPPPRP | 0.306
21 | RRIRDRPPRLPRPRPRPLQFPRP | 0.0246
22 | RRIRDRPPRLPRPRPRPLRWPRP | 0.274
23 | RRIRDRPPRLPRPRPRPLVHPRP | 0.265
24 | RRIRDRPPRLPRPRPRPLVPPRP | 0.249
25 | RRIRDRPPRLPRPRPRPLVVPRP | 0.102
26 | RRIRDRPPRLPRPRPRPLYIPRP | -0.266
27 | RRIRDRPPRLPRPRPRPMCGPRP | 1.12
28 | RRIRDRPPRLPRPRPRPMCQPRP | 0.0359

Row | Sequence | shrunken log2 fold change
29 | RRIRDRPPRLPRPRPRPMDNPRP | -0.0115
30 | RRIRDRPPRLPRPRPRPMFFPRP | 0.125
31 | RRIRDRPPRLPRPRPRPMGGPRP | 0.0169
32 | RRIRDRPPRLPRPRPRPMGVPRP | 0.0778
33 | RRIRDRPPRLPRPRPRPMHIPRP | -0.11
34 | RRIRDRPPRLPRPRPRPMHMPRP | -0.0583
35 | RRIRDRPPRLPRPRPRPMIAPRP | 0.732
36 | RRIRDRPPRLPRPRPRPMILPRP | -0.111
37 | RRIRDRPPRLPRPRPRPMIQPRP | -0.103
38 | RRIRDRPPRLPRPRPRPMLLPRP | 0.307
39 | RRIRDRPPRLPRPRPRPMLWPRP | 0.015
40 | RRIRDRPPRLPRPRPRPMMIPRP | 0.0818
41 | RRIRDRPPRLPRPRPRPMNAPRP | -0.0396
42 | RRIRDRPPRLPRPRPRPMNKPRP | -0.381
43 | RRIRDRPPRLPRPRPRPMPNPRP | -0.258
44 | RRIRDRPPRLPRPRPRPMQTPRP | 0.0424
45 | RRIRDRPPRLPRPRPRPMRYPRP | 0.104
46 | RRIRDRPPRLPRPRPRPMSEPRP | -0.00582
47 | RRIRDRPPRLPRPRPRPMVGPRP | 0.564
48 | RRIRDRPPRLPRPRPRPMVMPRP | 0.133
49 | RRIRDRPPRLPRPRPRPMWNPRP | 0.108
50 | RRIRDRPPRLPRPRPRPMWWPRP | -0.0122
51 | RRIRDRPPRLPRPRPRPMYIPRP | -0.148
52 | RRIRDRPPRLPRPRPRPNANPRP | 0.000903
53 | RRIRDRPPRLPRPRPRPNAYPRP | -0.043
54 | RRIRDRPPRLPRPRPRPNCDPRP | -0.144
55 | RRIRDRPPRLPRPRPRPNDIPRP | -0.211

Source: the supplement of paper PMC9112550, “Optimization of the antimicrobial peptide Bac7 by deep mutational scanning” (BMC Biology, 2022)
